In patent publication US20190113512A1 (MIT, published 2019):

What was measured:
H1BA = H1BA (Mycobacterium tuberculosis); test: yeast-surface display flow cytometry, specificity test
H2BA [1] = target: T1, H2BA (Mycobacterium tuberculosis); test: as above
H6BA = H6BA (Mycobacterium tuberculosis); test: as above
H7BA = H7BA (Mycobacterium tuberculosis); test: as above
H2BA [2] = target: T1, H2BA; test: yeast-surface display; validated conditions not given
[3] = target: T2, streptavidin Alexa Fluor 647 (UniProt P22629 37-163); test: yeast-surface display flow cytometry, secondary reagent alone, geometric MFI
T2 construct: also called SA-AF647; streptavidin-AF 647
T2 sequence (P22629 37-163 limits assumed): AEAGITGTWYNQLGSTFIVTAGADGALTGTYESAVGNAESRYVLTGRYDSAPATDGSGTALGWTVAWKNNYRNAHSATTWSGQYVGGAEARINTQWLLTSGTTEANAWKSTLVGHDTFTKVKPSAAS

B1: rcSso7d.H1BA.3 (designed binder)
chain: MATVKFTYQGEEKQVDISKIKHVIRNGQYIIFAYDEGGGAYGGGWVSEKDAPKELLQMLEKQ
notes: also called 1.E2.2
% positive (H1BA): 71.5% | % positive (H2BA [1]): 0.9% | % positive (H6BA): 0.9% | % positive (H7BA): 1.3%

B2: rcSso7d.H2BA.2 (designed binder)
chain: MATVKFTYQGEEKQVDISKIKYVGRWGQNIGFAYDEGGGAYGYGGVSEKDAPKELLQMLEKQ
binding result (H2BA [2]): binds

B3: rcSso7d.Rv1656 (yeast-surface displayed) (designed binder)
chain: MATVKFTYQGEEKQVDISKIKWVRRYGQYIGFSYDEGGGAWGKGYVSEKDAPKELLQMLEKQ
notes: also called rcSso7d.H4.2; H4.2
binding result [3]: no binding
